Data taken from patent publication US20030138522A1.

Target: wheat extractable xylanolytic enzymes
Assay: cell-based or functional assay

OD (Xylazyme substrate, xylanase activity; 100 µl xylanolytic extract + 100 µl purified inhibitor; control without inhibitor OD 0.8): 0.277 OD
OD (Xylazyme substrate, xylanase activity; 250 µl xylanolytic extract + 100 µl purified inhibitor; control without inhibitor OD 0.867): 0.275 OD
OD (Xylazyme substrate, xylanase activity; 500 µl xylanolytic extract + 100 µl purified inhibitor; control without inhibitor OD 1.031): 0.414 OD
Substance: purified wheat endogenous xylanase inhibitor
